Results published in patent publication US20110268748A1 (UNIVERSITY OF ROCHESTER, published 2011).

T1: pPC86-RXR (Gal4 activation domain fused to full-length human RXRα) (human, UniProt P19793 1-462)
T1 construct: also called pPC89RXR
T1 sequence (looked up): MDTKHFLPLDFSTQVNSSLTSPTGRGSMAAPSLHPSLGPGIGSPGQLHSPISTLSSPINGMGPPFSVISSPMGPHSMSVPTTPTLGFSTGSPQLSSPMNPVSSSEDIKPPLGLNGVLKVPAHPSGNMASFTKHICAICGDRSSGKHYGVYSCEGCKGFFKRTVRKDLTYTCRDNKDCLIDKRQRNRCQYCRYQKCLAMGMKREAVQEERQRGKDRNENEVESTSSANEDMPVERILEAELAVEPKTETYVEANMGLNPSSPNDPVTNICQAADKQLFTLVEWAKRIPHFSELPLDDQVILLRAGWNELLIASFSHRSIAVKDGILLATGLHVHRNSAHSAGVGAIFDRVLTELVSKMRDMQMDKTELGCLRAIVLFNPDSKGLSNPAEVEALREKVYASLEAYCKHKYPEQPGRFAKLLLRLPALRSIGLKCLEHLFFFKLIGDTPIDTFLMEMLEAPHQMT

T2: VP16-NuIP (HSV VP16 activation domain fused to full-length NuIP) (mouse, UniProt Q8BPQ7 1-1093)
T2 construct: also called pVP16NuIP
T2 sequence: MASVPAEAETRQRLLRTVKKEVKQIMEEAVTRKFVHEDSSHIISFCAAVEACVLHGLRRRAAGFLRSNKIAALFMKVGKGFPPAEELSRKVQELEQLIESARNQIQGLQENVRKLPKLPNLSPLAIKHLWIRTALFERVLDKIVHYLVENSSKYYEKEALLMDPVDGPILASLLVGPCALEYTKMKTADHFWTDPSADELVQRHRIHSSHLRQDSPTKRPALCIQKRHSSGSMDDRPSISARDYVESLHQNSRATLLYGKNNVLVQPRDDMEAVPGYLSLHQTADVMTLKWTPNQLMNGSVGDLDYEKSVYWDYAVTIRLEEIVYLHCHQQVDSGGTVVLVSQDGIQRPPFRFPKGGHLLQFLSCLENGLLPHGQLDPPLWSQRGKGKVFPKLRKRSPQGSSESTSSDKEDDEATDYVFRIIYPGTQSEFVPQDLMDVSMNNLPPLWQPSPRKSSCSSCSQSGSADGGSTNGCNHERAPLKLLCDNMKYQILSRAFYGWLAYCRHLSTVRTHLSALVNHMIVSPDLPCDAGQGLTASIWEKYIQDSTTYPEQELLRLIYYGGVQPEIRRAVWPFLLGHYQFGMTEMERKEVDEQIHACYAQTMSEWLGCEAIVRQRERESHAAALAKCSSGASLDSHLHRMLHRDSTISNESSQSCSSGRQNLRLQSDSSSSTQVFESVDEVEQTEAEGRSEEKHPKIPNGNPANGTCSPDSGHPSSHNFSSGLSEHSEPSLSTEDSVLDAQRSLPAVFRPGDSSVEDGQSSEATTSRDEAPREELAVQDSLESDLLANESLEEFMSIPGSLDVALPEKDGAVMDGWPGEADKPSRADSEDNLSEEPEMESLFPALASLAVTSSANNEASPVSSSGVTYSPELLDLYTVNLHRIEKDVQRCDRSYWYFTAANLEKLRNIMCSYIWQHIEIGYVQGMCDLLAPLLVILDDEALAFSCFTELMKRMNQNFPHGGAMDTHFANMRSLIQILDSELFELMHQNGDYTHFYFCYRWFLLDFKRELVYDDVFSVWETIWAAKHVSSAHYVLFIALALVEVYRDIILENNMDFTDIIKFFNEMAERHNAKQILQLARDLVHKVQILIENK

B1: Gal4 activation domain alone (empty pPC86 vector) (other, UniProt P04386 768-881, looked up)
chain: ANFNQSGNIADSSLSFTFTNSSNGPNLITTQTNSQALSQPIASSNVHDNFMNNEITASKIDDGNNSKPLSPGWTDQTAYNAFGITTGMFNTTTMDDVYNYLFDDEDTPPNPKKE
notes: Empty prey vector control in yeast two-hybrid; also called pPC89
B2: Gal4NLBDΔ583 (Gal4 DNA-binding domain fused to the Nurr1 ligand binding domain with the AF2 domain deleted) (other)
chain: DPSPPSPPVSLISALVRAHVDSNPAMTSLDYSRFQANPDYQMSGDDTQHIQQFYDLLTGSMEIIRGWAEKIPGFADLPKADQDLLFESAFLELFVLRLAYRSNPVEGKLIFCNGVVLHRLQCVRGFGEWIDSIVEFSSNLQNMNIDISAFSCIAALAMVTERHGLKEPKRVEELQNKIVNCLKDHVTFNNGGLNRPNYLSKLLGKLPELRTLCTQGLQRIFYLKLEDLVP
notes: Used under the same name as yeast bait (pPC97) and in the mammalian two-hybrid assay in MN9D cells; also called Gal4NLDBA583; Gal4NLBDp583

Key:
[1] = molecular target: T3, Gal4NLBD589A (Gal4 DNA-binding domain fused to the Nurr1 ligand binding domain with alanine for aspartic acid … (UniProt P04386 1-147)); assay: yeast two-hybrid, empty prey vector control, growth on -Leu/-Trp/-His (X-gal staining: White)
T3 construct: also called pPC97-NLBD589A; pPC97NLBD589A

[2] = molecular target: T1, pPC86-RXR (Gal4 activation domain fused …); assay: yeast two-hybrid, growth on -Leu/-Trp/-His (X-gal staining: White)
[3] = molecular target: T2, VP16-NuIP (HSV VP16 activation domain …); assay: mammalian two-hybrid, luciferase reporter, MN9D cells

| Binder | binding result [1] | binding result [2] | binding result [3] |
| --- | --- | --- | --- |
| B1 | no binding |  |  |
| B2 |  | no binding | binds |
